Test results from paper PMC6379675, “Structural insights into chromosome attachment to the nuclear envelope by an inner nuclear membrane protein Bqt4 in fission yeast” (Nucleic Acids Research, 2018).

B1: Sad1 (residues 88–101) [S. pombe] / Bqt4_(2–140), N-terminal domain of Bqt4 [S. pombe] (parent complex)
chain 1: SDNEEFENVVKNGH
chain 2: TENEKSRSLPAERNPLYKDDTLDHTPLIPKCRAQVIEFPDGPATFVRLKCTNPESKVPHFLMRMAKDSSISATSMFRSAFPKATQEEEDLEMRWIRDNLNPIEDKRVAGLWVPPADALALAKDYSMTPFINALLEASST
B2: Rap1_(479–527) [S. pombe] / Bqt4_(2–140), N-terminal domain of Bqt4 [S. pombe] (parent complex)
chain 1: EIPLLSDYSDSENISEKSSDDEEAFEKQVTSSYSSPIKVKSQGKSSKGS
chain 2: B1 chain 2
B3: Lem2_(261–279) [S. pombe] / Bqt4_(2–140), N-terminal domain of Bqt4 [S. pombe] (parent complex)
chain 1: SAEEDDELFQNYVLQQTRK
chain 2: B1 chain 2

Variants of: B1
Test: ITC; parent: 3.7e+03 nM
In the case of chain 2 TENEKSRSLPAERNPLYKDDTLDHTPLIPKCRAQVIEFPDGPATFVELKCTNPESKVPHFLMRMAKDSSISATSMFRSAFPKATQEEEDLEMRWIRDNLNPIEDKRVAGLWVPPADALALAKDYSMTPFINALLEASST [chain 2 R47E], the Kd is reported as 262 µM.

Variants of: B2
Test: ITC; parent: 1.14e+04 nM
chain 1 EIPLLSDYSDSENISEKSADDEEAFEKQVTSSYSSPIKVKSQGKSSKGS [chain 1 S19A] was tested, and the Kd was 9.5 µM. Variant chain 1 EIPLLSDYSDSENISEKSEDDEEAFEKQVTSSYSSPIKVKSQGKSSKGS [chain 1 S19E] has a Kd of 2.6 µM. With chain 1 EIPLLSDYSDSENISEKSSDDEEAFEKQVTSSYAAPIKVKSQGKSSKGS [chain 1 S34A, chain 1 S35A] the Kd was 7.3 µM. Variant chain 1 EIPLLSDYSDSENISEKSSDDEEAFEKQVTSSYSAPIKVKSQGKSSKGS [chain 1 S35A] has a Kd of 7.9 µM. In the case of chain 1 EIPLLSDYSDSENISEKSSDDEEAFEKQVTSSYSEPIKVKSQGKSSKGS [chain 1 S35E], the Kd is reported as 57.8 µM. Variant chain 1 EIPLLSDYSDSENISEKESDDEEAFEKQVTSSYSSPIKVKSQGKSSKGS [chain 1 S18E] has a Kd of 2.4 µM. Variant chain 1 EIPLLSDYSDSENISEKASDDEEAFEKQVTSSYSSPIKVKSQGKSSKGS [chain 1 S18A] has a Kd of 10.6 µM. In the case of chain 1 EIPLLSDYSDSENISEKEEDDEEAFEKQVTSSYSSPIKVKSQGKSSKGS [chain 1 S18E, chain 1 S19E], the Kd is reported as 0.9 µM. chain 1 EIPLLSDYSDSENISEKSSDDEEAFEKQVTSSYEEPIKVKSQGKSSKGS [chain 1 S34E, chain 1 S35E] was tested, and the Kd was 115 µM. chain 1 EIPLLSDYSDSENISEKSSDDEEAFEKQVTSSYASPIKVKSQGKSSKGS [chain 1 S34A] showed a Kd of 7.1 µM. For chain 1 EIPLLSDYSDSENISEKSSDDEEAFEKQVTSSYESPIKVKSQGKSSKGS [chain 1 S34E], the Kd was 27.2 µM. Variant chain 1 EIPLLSDYSDSENISEKAADDEEAFEKQVTSSYSSPIKVKSQGKSSKGS [chain 1 S18A, chain 1 S19A] has a Kd of 8 µM.

Variants of: B2
Test: ITC; parent: 1.14e+04 nM
Remark: another data set of the same source
chain 2 TENEKSRSLPAERNPLYKDDTLDHTPLIPKCRAQVIEFPDGPATFVRLKCTNPESKVPHALMRMAKDSSISATSMFRSAFPKATQEEEDLEMRWIRDNLNPIEDKRVAGLWVPPADALALAKDYSMTPFINALLEASST [chain 2 F60A] gave a Kd of 909 µM.

Variants of: B2
Test: ITC; parent: 1.14e+04 nM
Remark: another data set of the same source
For chain 2 TENEKSRSLPAERNPLYKDDTLDHTPLIPKCRAQVIEFPDGPATFVRLKCTNPESKVPHFLMRMAKDSSISATSMFRSAFPKATQEEERLEMRWIRDNLNPIEDKRVAGLWVPPADALALAKDYSMTPFINALLEASST [chain 2 D89R], the Kd was 14.4 µM. chain 2 TENEKSRSLPAERNPLYKDDTLDHTPLIPKCAAQVIEFPDGPATFVRLKCTNPESKVPHFLMRMAKDSSISATSMFRSAFPKATQEEEDLEMRWIRDNLNPIEDKRVAGLWVPPADALALAKDYSMTPFINALLEASST [chain 2 R32A] gave a Kd of 12.3 µM.

Variants of: B2
Test: ITC; parent: 1.14e+04 nM
Remark: another data set of the same source
For chain 1 EIPLLSDYSDSENISEKSSDDEEAFEKQATSSYSSPIKVKSQGKSSKGS [chain 1 V29A], the Kd was 138 µM. Variant chain 1 EIPLLSDYSDSENISEKSSDDEEAAEKQVTSSYSSPIKVKSQGKSSKGS [chain 1 F25A] has a Kd of 106 µM. chain 1 EIPLLSDYSDSENISEKSSDAAEAFEKQVTSSYSSPIKVKSQGKSSKGS [chain 1 D21A, chain 1 E22A] showed a Kd of 862 µM.

Variants of: B3
Test: ITC; parent: 530 nM
For chain 2 TENEKSRSLPAERNPLYKDDTLDHTPLIPKCRAQVIEFPDGPATFVELKCTNPESKVPHFLMRMAKDSSISATSMFRSAFPKATQEEEDLEMRWIRDNLNPIEDKRVAGLWVPPADALALAKDYSMTPFINALLEASST [chain 2 R47E], the Kd was 3.2 µM. Work on chain 2 TENEKSRSLPAERNPLYKDDTLDHTPLIPKCRAQVIEFPDGPATFVRLKCTNPESKVPHALMRMAKDSSISATSMFRSAFPKATQEEEDLEMRWIRDNLNPIEDKRVAGLWVPPADALALAKDYSMTPFINALLEASST [chain 2 F60A] yielded a Kd of 46 µM.
